Laboratory results reported in the nanobody polyreactivity screen of Harvey et al. (2022).

Experiment: yeast display, Sf9 membrane polyspecificity reagent, FACS + sequencing; frameworks hold sequencing errors
How it was run: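 After 36–48 hours of galactose induction, yeast (Saccharomyces cerevisiae BJ5465) displaying a synthetic nanobody library were stained at 4 °C for 1 hour with 10% biotinylated, detergent-solubilized Sf9 membrane reagent. Streptavidin microbeads enriched the stained cells before FACS sorting into low and high (top ~1%) gates on anti-HA and streptavidin fluorescence. Each clone's polyreactivity label reflects its gate of origin.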

Sequence	polyreactivity (PSR sort gate)
QVQLVESGGGLVQAGGSLRLTCSASGIILYYYAMGWNRQAPGKERELVAAISSSGGSTYYADSVKGRFTFSRDNAKNTVYLQMKSLKPEDTAVYYCAAWVVPLRYAYGRLTYNYWGQGTQVTVSS	high polyreactivity
QVQLVESGGGLVQAGGSLRLSCAASGRIFDDYAMGWYRQAPGKERELVAAISWSGGSTYYADSVKGRFTISRDNAKNTVYLQMNSLKPEDTAVYYCAAPYHSYKRIGYDYWGQGTQVTVSS	low polyreactivity
QVQLVESGGGLVQAGGSLRLICAASGIIFYYAMGWYRQAPGKEREFVASIRWSGDSTYYADSVKGRFTISRDNAKNTVYLQMNSLKPEDTAVYYCAAEPDSAVSYVSWRDYWGQGTQVTVSS	low polyreactivity
QVQLVESGGGLVQEGGSLRLSCAASGSIFYNAMGWTRQAPGKERELVAAISSRGASTYYADSVKGRFTISRDNAKNTVYLLMNSLKPEDTAVYYCAKDNRYPYPSGLDYWGQGTQVTVSS	high polyreactivity
QVQLVESGGGLVQAGGSLRLSCAASGFTFARNAMGWYRQATGKERELVASITQRGGSTNYADSVKVRFTISRDNAQNTVYLQMNSLKPEDTAVYYCNKASQLYYIQGTYSYGYWGQGTQVTVSS	low polyreactivity
QVQLVESGGGLVQAGGSLRLSCAASGIIFYRNARGWYRQAPGKERELVAAISSRGGNTYYADSVKGRFTISRDNAKNTVYLQMNSLQPEDTAVYYCARDSYSLSRTYDSWGQGTQVTLSS	high polyreactivity
QEQLQESGGGLEQPGGSLRLSCAASGSISGSSTMGWYRQAQGKERELVASIAVGANTNYADSAKGRFTISRDNAKNPVYLQMNSLKPEDTAVYYCAVDYYIYYFHYWGQATQVTVSS	high polyreactivity
QVQLVESGGGLVHAGGSLRLSCAASGITFSDNTMGWYRQAPGKERELVAAISWRGGRTYYADSVKGRFTISRDYAKNTVSLQMNSLKPEDTAVYYCNAVTSSKARSSSYDYWGQGTQVTVSS	high polyreactivity
QVQLVESGGGLVQAGGSLRLSCAASGRILKRNAMGWYRQAPGKERELVAAISWSTGTTYYADSVKGRFTISRDNAKNTVYLQMNSLKPEDTAVYYCAKQIVSGRRVDRNDYWGQGTQVTVSS	low polyreactivity
QVQLVESGGGLVQAGGSLRLSCAASGSIFYIYAMGWYRKAPGKERELVASIDSGDSTNYADSVKGRFTISRDNAKNTVYLQMNSLKPEDTAVYYCNADTFSELTYYLYIGMDYWGQGTQVTVSS	low polyreactivity
QVQLVESGGGLVQAGGSLSLICAASGSIFAPNAMGLYRQAPGKERELDATITKRGGNTYYADSVKGRFTISRDNAINTVYLKMNSLKPEDSAVFYCNDSPYSRWSSYGYDYWGQGTQVTVSS	low polyreactivity
QVQLVESGGGLVQAGGSLRLTCAASGFIFDTYAMGWYRQAPGKERELVAAISWTGTDTYYADSVKGRFTISRDNAKNTVYLQMNSLKPEDTAVYYCAARSRYKYSPSGDYWGQGTQVTVSS	high polyreactivity
QVQLVESGGGLVQAGGSLRLICAASGSILTHYAMGWYRQAPGKERELVAAITWRGGSTYYADSVKGRFTISRDNAKNTVYLQMNSLKPEDTAVYYCNADYFGGGDYWGQGTQVTVSS	low polyreactivity
QDQLVESGGGLVQAGGSLRLSCAASGSTFGYYVMGWYRQAPGKERELVAGISSSGGSTYYADSVKGRFTISRDNAKNTVYLQMNSLKPEDTAVYYCAAVRGTGTRRYDYWGQGTQVTVSS	high polyreactivity
QVQLVESGGGLVQAGGSLRLSCAASGRIFDQYAMAWYRQAPGKERELVATISGSGGSTYYADSVKGRFTISRDNAKNTVYLQMNSLKPEDTAVYYCAAVSVSSWYDYWGQGTQVTVSS	low polyreactivity
QVQLVESGGGLVQPGGSLRLSCAASGITFRGYAMGWYRQAPGKERELVATISYRGGNTYYADSVKGRFTISRDNAKNTVYLQMNSLKPEDTAVYYCARKYFRTSNLYGYWGQGTQVTVSS	high polyreactivity
QVQLVESGGGLVQAGGSLRLSCAASGRTLDSNAMGWYRQAPGKERELVAAISSAGSTNYADSVKGRFTISRDNAKNTVYLQMNSLKPEDTAVYYCAADLIGSHDYWGQGTQVTVSS	low polyreactivity
QVQLVESGGVLVQAGGSLRLSCAASGFTFWLYAMGWYRQAPGKERELVAAISSGGGSTYYADSVKGRFTNSRDNAKNTVYLQMNSLKPEDTAVYYCNRYYYYGYDWGQGTQVTVSS	high polyreactivity
QVQLVESGGGLVQARGSLRLSCAASGFTFPQYAMAWYRQAPGKERELVAVISWSGSSTYYADSVKGRFTISRDNAKNTVYLQMNSLKPEDTAVDYCNTRKLYQVDYDYWGQGTQVTVSS	high polyreactivity
QVQPVESGGGLVQAGGSLRLSCAASGIIFISYDMGWYRQAPGKERELVARINWDGGSTYYADSVKGRFTISRDNAKNTVYLQMNSLKPEDTAVYYCAAGFVGTNYPLQGFSYEYWGQGTQVTVSS	low polyreactivity
QVHLVESGGGLVQAGGSLRLSCAASGRTFASNPMGWYRQAPGKERELVAAISARGGSTYYADSVKGRFTISRDNAKNTVYLQMNSLKPEDTAVYYCAAYLGYPYGRDYWGQGTQVTVSS	high polyreactivity
QVQLQGSGGGLVQAGGSLRLSCAASGYIFQNVPMGWNRQAPCKERELVAGIDNGTSTNYADSVNGRFTISRDNAKNTVYLQMNSLKPEDTAVYYCAAAGQADDTLGYWGQGTQVTVSS	low polyreactivity

Sequence	polyreactivity (PSR sort gate)
QVQLVESGGGLVQAGGSLRLSCAASGITFVFYTMGWYRQAPGKETELVAAISRSGASTYYADSVKGRFTISRDNAKNTVYLQMNSLKPEDTAVYYCAADRGYRFRMDYWGQGTQVTVST	high polyreactivity
QVQLVESGGGLVQAGGSLRLSCAASGRIFYYNTMGWYRQAPGKERELVARITYSGGRTYYADSVKGRFTISRDNAKNTVYLQMNSLKPEDTAVYYCNTAYRYFERQMYYWGQGTQVTVSS	high polyreactivity
QVHLVESGGGLVQAGGSLRLSCAASGFIFPAYVMGWYRQAPGKERELVAVIGSGGSTSYADSVKGRFTISRDNAKNTVYLQMNSLKPEDTAVYYCTADPTWFGYVYYQYDYWGQGTKVTVSS	low polyreactivity
QVQLVESGGGLVQAGGSLRLSCAASGFTFRYNAMGWYRQAPGKERELVAAISSRGGSTYYADSVKGRFTISRDNAKNTVYLQMNSLKPEDTAVYYCALYGGLGDRFRPRYYWGQGTQVTVSS	high polyreactivity
QVQLVESGGGLVQAGGSLRLSCAASGFTLSRYAMGWYRQAPGKERELVAAIRWSGGSTYYADSVKGRFTISRDNAKNTVYLQMNSLKPEDTAVYYCATRYYLKFLDGYNYWGQGTQVTVSS	high polyreactivity
QVQLVESGGGLVQAGGSLRLSCAASGFTFRKYVMGWYRQAPGKERELVAGISRSGSRTYYADSVKGRFTISRDNAKNTVYLQMNSLKPEDTAVYYCAADAAHSEYDYWGQGTQVTVSS	high polyreactivity
QVQLVESGGGIVQAGGSLRLSSAASGFIFRYYAMGWYRQARGNEREWVAAISSGGRTSYADSVKGRFTISRDNAKNTVYLQMNSLTPEDTAVYYCAADRWRCLFYYGNDYWGQGTQVTVSS	high polyreactivity
QVQLVESGGGLFQAGGSLRLSCAASGLTLYFYVMGWYRQAPGKERELVAAISSTGSTYYADSVKGRFTISRDNAKNTVYLQMNSLKPEDTAVYYCAARYGGHYGAEYYWGQGSQVTVSS	high polyreactivity
QVQLQESGGGLVQAGGSLRLSCAASGSIYDGFNMGWYRQAPGKEREFVAAISYGASTYYADSVKGRFTVSRDNAKNSVYLQMNSLKPEDTAVYYCAVYDELYHVLVYWGRGTQVTVSS	low polyreactivity
QVQLQESGGVQVQAGGSLRLSCAASGYISTHYFMGWYRQAPGKDREFVAGISNGSITNYADSVKGRFTISRDNARNTVYLQMNSLKPEDTAVYYGAAYEWTYVRFGYWGQGTLVTVSS	high polyreactivity
QVQLVESGGGLVQAGGSLRLICAASGRIFSSYAMGWYRQAPGKERELVAAISRGGGRTYYADSVKGRFTISRDNAKNTVYLQMNSLKPEDTAVYYCAVRLYYSIRYYYWGQGTQVTVSS	high polyreactivity
QVQLVESGGGLVQAGGSLRLSCAASGRIISRYAMGWYRQAPGKERELVAAISRRGGSTYYADSVKGRFTISRDNAKNTVYLQLNSLKPEDTAVYYCNADTGNRGYDYWGQGTQVTVSS	high polyreactivity
QVQLVESGGGLVQAGGSLLLSCAASGIIFSSYVMGWYRQAHGKERELVAAISKSGARPSYADSVKGRFTISRDNAKNTVYLQMNSLKPEDTAVYYCAAAWHTAYWVGSDSQGGGYWGQGTQVTVSS	low polyreactivity
QVQLQESRGGQVQEGGSLRLSCAASGNISPPADMGWYRQAPGKERELVASIGTGGTTNYADSVKGRFTISRDNAKNTVYLQMKSLKPDDTAVYYCAAVRFEYNPYDYWGQGTQVTVSS	low polyreactivity
QVHLVESGGGLVQAGGSLRLSCAASGRIFPKNGMGWYRQAPGTERDLVAAITSGTSTYYADSVKGRFTISRDNAKNTVYLQMNRLKPEDTAVYYCAARPTDGSGWPYRWTSDYWGQGTQVTVSS	low polyreactivity
QVQLVESGGGLVQAGGSLRLSCAASGFTFEKYVMGWYRQAPGKDREFVAAITRSGGRTYYADSVKGRFTISRDNAKNTVSLQMNSLKPEDTAVYYCAAAFSRSDTGGGSSGQGTQVTVSS	high polyreactivity
QVQLVESGGGLVQAGGSLRLSCAASGSIFHWYTMGWYRQAPGKERELVATISAGGSTYYADSVKGRFKISRDNAKNTVYLQMNSLKPEDTAVYYCNRRVHGVYRWRRSDSWGQGTQVTVAS	high polyreactivity
QVQLVESGGGLVQAGGSLRLSCAASGRIFRWYAMGWYRQAPGKERELVAAISWSGGRTYYADSVKGRFTISRDNAKNTVYFQMNSLKPEDTAVYYCAAEGAIPRYYIGGVDYWGQGTQVTVSS	high polyreactivity
QVQLVESGGGLVQAGGSLRLSCAASGSTFKWYAMGWYRPAPGKEREFVAAITKTGGRTNYADSVKGRFTISRDNAKNTVYLQMNSLKPEDTAVYYCAAGYYAGIYYYWGQGTQVTVSS	high polyreactivity
QVQLVESGGGLVQAGGSLRLSCAASGITFQYNAMGWYRQAPGKERELVATIRRGGITKYADSVKGRFTISRDNAKNTVSLQMNSLKPEDSAVYYCAADFWYYQYPYGGGGYWGQGTQVTVSS	low polyreactivity
QVQLVESGGGLVQAGGSLRLSCAASGIIIGNNAMGWYRQAPGKERELVAAISRRGGSTYYADSVKGRFTISRDNAKNTVYLQMNSLKPEDTAVYYCAADIYRYNSYDYWGQGTQVTVSS	low polyreactivity
